{"source": "patent US20050261179", "key": {"[1]": {"test_system": "adrenomedullin (synthetic human AM)"}, "[2]": {"molecular_target": "human complement factor H (UniProt P08603)", "sequence (P08603 19-1231)": "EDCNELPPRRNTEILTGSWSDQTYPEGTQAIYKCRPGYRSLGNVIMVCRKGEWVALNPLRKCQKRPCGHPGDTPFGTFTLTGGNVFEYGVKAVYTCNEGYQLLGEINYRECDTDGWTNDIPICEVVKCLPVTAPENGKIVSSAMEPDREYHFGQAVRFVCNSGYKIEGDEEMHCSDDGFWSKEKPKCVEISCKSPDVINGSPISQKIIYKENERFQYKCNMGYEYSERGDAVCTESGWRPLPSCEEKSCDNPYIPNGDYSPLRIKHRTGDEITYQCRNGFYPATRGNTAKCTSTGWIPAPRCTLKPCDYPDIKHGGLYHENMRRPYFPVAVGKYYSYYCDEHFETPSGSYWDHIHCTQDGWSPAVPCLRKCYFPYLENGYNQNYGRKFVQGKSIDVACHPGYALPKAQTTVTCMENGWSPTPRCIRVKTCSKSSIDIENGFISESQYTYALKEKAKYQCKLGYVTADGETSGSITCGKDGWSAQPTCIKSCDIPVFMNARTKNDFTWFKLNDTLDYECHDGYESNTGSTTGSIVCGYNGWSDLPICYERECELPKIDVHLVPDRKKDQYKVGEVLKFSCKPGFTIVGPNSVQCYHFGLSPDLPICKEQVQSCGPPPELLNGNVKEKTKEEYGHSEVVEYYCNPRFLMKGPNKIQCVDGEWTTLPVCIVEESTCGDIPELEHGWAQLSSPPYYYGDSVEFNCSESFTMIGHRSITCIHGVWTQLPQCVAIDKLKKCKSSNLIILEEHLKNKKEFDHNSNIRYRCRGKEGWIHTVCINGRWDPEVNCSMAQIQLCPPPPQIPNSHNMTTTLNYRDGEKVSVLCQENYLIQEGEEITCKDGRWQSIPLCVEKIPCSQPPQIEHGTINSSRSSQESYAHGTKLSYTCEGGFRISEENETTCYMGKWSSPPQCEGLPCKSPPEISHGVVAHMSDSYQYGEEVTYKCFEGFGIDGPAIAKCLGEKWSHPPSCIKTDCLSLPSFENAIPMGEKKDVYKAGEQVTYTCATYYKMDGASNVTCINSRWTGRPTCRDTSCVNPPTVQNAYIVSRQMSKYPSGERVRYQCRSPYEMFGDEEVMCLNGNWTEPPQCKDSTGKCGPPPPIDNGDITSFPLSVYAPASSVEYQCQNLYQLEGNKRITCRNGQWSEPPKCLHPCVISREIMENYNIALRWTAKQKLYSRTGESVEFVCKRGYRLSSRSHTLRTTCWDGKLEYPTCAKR"}}, "data": [{"substance": "human recombinant MMP-9", "values": [{"measurement": "degradation of synthetic AM (gel)", "setting": "[1]", "result": "The resistance of AM to degradation by MMP-9"}, {"measurement": "degradation of factor H (gel)", "setting": "[2]", "result": "is not a substrate for either one of the MMPs"}]}]}
